Assay results taken from publication PMC8302205.

Substrate: C[N+](C)(C)[C@@H](Cc1cnc[nH]1)C(=O)[O-]
Assay: purified protein
Format: biochemical, Chlorobium limicola
Conditions: 0.116 mM K2Sx, 50 mM KPi pH 8.0, 25 °C

Row | Protein | Km [µM] | kcat [s⁻¹] | Km (EanB C412-only variant) [µM] | kcat (EanB C412-only variant) [s⁻¹]
1 | EanB (Chlorobium limicola DSM 245) (protein) MQNKNFRAPQSEAIGILYKLIETGSKHKNMYDHTEITTDSLLALLGSEKVKIIDVRSADAYNGWRMRGEVRGGHIKGAKSLPAKWLTDPEWLNIVRFKQIRPEDAIVLYGYTPEECEQTATRFKENGYNNVSVFHRFHPDWTGNDAFPMDRLEQYNRLVPAEWVNGLISGEEIPEYDNDTFIVCHAHYRNRDAYLSGHIPGATDMDTLALESPETWNRRTPEELKKALEEHGITASTTVVLYGKFMHPDNADEFPGSAAGHIGAIRLAFIMMYAGVEDVRVLNGGYQSWTDAGFAISKDDVPKTTVPEFGAPIPSRPEFAVDIDEAKEMLQSEDSDLVCVRSYPEYIGEVSGYNYIKKKGRIPGAIFAECGSDAYHMENYRNHDHTTREYHEIEDIWAKSGIIPKKHLAFYCGTGWRGSEAWFNALLMGWPRVSVYDGGWFEWSNDPENPYETGVPK | 69.7 ± 8.7 | 0.0113 ± 0.00017 |  | 
2 | EanB (Chlorobium limicola DSM 245; C116A/C184A/C339A/C370A) (protein) MQNKNFRAPQSEAIGILYKLIETGSKHKNMYDHTEITTDSLLALLGSEKVKIIDVRSADAYNGWRMRGEVRGGHIKGAKSLPAKWLTDPEWLNIVRFKQIRPEDAIVLYGYTPEEAEQTATRFKENGYNNVSVFHRFHPDWTGNDAFPMDRLEQYNRLVPAEWVNGLISGEEIPEYDNDTFIVAHAHYRNRDAYLSGHIPGATDMDTLALESPETWNRRTPEELKKALEEHGITASTTVVLYGKFMHPDNADEFPGSAAGHIGAIRLAFIMMYAGVEDVRVLNGGYQSWTDAGFAISKDDVPKTTVPEFGAPIPSRPEFAVDIDEAKEMLQSEDSDLVAVRSYPEYIGEVSGYNYIKKKGRIPGAIFAEAGSDAYHMENYRNHDHTTREYHEIEDIWAKSGIIPKKHLAFYCGTGWRGSEAWFNALLMGWPRVSVYDGGWFEWSNDPENPYETGVPK |  |  | 65.9 ± 3.4 | 0.0025 ± 0.00017
